Laboratory results reported in the supplement of paper PMC10065799, “High-throughput profiling of sequence recognition by tyrosine kinases and SH2 domains using bacterial peptide display” (eLife, 2023).

biological target: FGFR3 (UniProt P22607); experiment: phosphorylation enrichment, bacterial display (enrichment ratio); higher = better substrate or ligand; peptides without Tyr show the background
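Further: 11-residue human phosphosite peptides and single-mutation variants displayed on the E. coli surface, counted by deep sequencing, each peptide's frequency after selection divided by its frequency in the unselected input library; frequency after pTyr selection over input frequency; kinase dosed for 20-30% of maximal phosphorylation in three min.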

Chain of FGFR3 (P22607 whole entry, looked up): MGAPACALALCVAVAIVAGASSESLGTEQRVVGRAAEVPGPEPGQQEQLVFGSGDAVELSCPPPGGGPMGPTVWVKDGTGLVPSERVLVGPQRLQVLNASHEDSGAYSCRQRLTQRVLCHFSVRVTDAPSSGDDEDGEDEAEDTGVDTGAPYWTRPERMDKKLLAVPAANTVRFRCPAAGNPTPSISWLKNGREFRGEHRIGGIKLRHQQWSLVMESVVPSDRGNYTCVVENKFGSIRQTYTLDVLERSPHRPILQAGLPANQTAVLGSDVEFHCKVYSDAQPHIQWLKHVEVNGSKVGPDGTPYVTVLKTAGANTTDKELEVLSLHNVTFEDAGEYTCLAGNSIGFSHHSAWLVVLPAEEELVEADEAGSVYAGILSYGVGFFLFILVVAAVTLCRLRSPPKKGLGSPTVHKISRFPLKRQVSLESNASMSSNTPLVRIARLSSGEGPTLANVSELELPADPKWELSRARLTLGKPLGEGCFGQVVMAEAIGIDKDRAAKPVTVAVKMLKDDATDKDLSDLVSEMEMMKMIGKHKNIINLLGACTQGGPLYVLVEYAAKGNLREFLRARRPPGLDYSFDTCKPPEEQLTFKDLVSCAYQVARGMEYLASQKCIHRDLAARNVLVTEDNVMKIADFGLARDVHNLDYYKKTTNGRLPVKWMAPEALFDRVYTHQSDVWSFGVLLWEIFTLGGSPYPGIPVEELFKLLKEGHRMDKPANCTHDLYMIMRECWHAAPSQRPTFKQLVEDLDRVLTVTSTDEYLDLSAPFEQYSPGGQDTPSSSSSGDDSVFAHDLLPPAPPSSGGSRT

| Sequence | phosphorylation enrichment |
| --- | --- |
| GYKVRYATWSI [FGFR1_Y210] | 0.669 |
| SGPRRYTMAAL [TTR_Y125_I127M] | 0.459 |
| DERQPYAHMNG [IGF1R_Y1346] | 0.459 |
| VATSWYRSPEL [CDKL5_Y177_R175S] | 0.545 |
| DEWFLYKMRDI [CPS1_Y879_K875E] | 0.878 |
| AFHGEYIPTVF [RAC2_Y32_P29H] | 0.635 |
| REENGYNTYAS [FGF10_Y161_I156R] | 1.03 |
| WFISFYPQVIM [CTNS_Y143_S139F] | 0.838 |
| AFQGKYTPSGQ [ALDOA_Y343_C339Y_YF] | 0.328 |
| AKKVFYVNETR [SHH_Y253_I255N] | 0.494 |
| ESTPLYPMLFG [SCLY_Y280_F276S] | 8.03 |
| EFISEHCGEII [EZH2_Y641_Y641H] | 0.722 |
| KELAPYDENRF [RPS19_Y48_W52R] | 0.79 |
| LALTVYADCLA [ABCA4_Y2063_G2059A] | 1.05 |
| ETKENYGKTLK [CHL1_Y291] | 0.508 |
| RHPLDYLRQFP [NARS2_Y138_E137D_YF] | 0.449 |
| LASSEYPVRRR [GALK1_Y236] | 0.496 |

| Sequence | phosphorylation enrichment |
| --- | --- |
| QEIATYRPLLE [KRT14_Y415_R417P] | 0.834 |
| QGLRLYRPHLA [BTK_Y617] | 0.76 |
| HNLDYYKMTTN [FGFR3_Y648_K650M] | 14 |
| SVTCTYSAALN [TP53_Y126_P128A] | 0.929 |
| PEVRRCVLPLN [RPE65_Y368_Y368C] | 0.774 |
| LARHMYDKEYY [MET_Y1230_D1228H] | 0.813 |
| RLFARYFQGDL [PDK3_Y337_YF] | 0.627 |
| DRPASYLDKVR [KRT17_Y98_L95P] | 0.456 |
| VRRRSYSAGNA [KANK1_Y324_K321R] | 0.742 |
| ALAAPYVLFPS [CEFIP_Y1332_G1337S_YF] | 1.83 |
| GCCSWYRGWAP [TIMP3_Y195_Y191C] | 0.966 |
| DEEYEYMNRRR [ERBB3_Y1199] | 0.629 |
| EVTQDYGLDPK [FH_Y110_N107T] | 0.902 |
| VVQGIYGYHHH [UFSP2_Y285_Y290H] | 0.488 |
| PVRIAYDRPRG [SUGP2_Y985] | 0.653 |
| LNNIIYRVERA [CUX2_Y1470] | 0.816 |

tested on: Fer (mouse); experiment: as above

| Sequence | phosphorylation enrichment |
| --- | --- |
| GYKVRYATWSI [FGFR1_Y210] | 0.456 |
| SGPRRYTMAAL [TTR_Y125_I127M] | 0.383 |
| DERQPYAHMNG [IGF1R_Y1346] | 0.456 |
| VATSWYRSPEL [CDKL5_Y177_R175S] | 0.409 |
| DEWFLYKMRDI [CPS1_Y879_K875E] | 0.586 |
| AFHGEYIPTVF [RAC2_Y32_P29H] | 0.391 |
| REENGYNTYAS [FGF10_Y161_I156R] | 0.559 |
| WFISFYPQVIM [CTNS_Y143_S139F] | 0.451 |
| AFQGKYTPSGQ [ALDOA_Y343_C339Y_YF] | 0.253 |
| AKKVFYVNETR [SHH_Y253_I255N] | 0.338 |
| ESTPLYPMLFG [SCLY_Y280_F276S] | 0.507 |
| EFISEHCGEII [EZH2_Y641_Y641H] | 0.652 |
| KELAPYDENRF [RPS19_Y48_W52R] | 0.579 |
| LALTVYADCLA [ABCA4_Y2063_G2059A] | 0.781 |
| ETKENYGKTLK [CHL1_Y291] | 0.351 |
| RHPLDYLRQFP [NARS2_Y138_E137D_YF] | 0.349 |
| LASSEYPVRRR [GALK1_Y236] | 0.363 |

| Sequence | phosphorylation enrichment |
| --- | --- |
| QEIATYRPLLE [KRT14_Y415_R417P] | 0.643 |
| QGLRLYRPHLA [BTK_Y617] | 0.542 |
| HNLDYYKMTTN [FGFR3_Y648_K650M] | 0.64 |
| SVTCTYSAALN [TP53_Y126_P128A] | 0.552 |
| PEVRRCVLPLN [RPE65_Y368_Y368C] | 0.644 |
| LARHMYDKEYY [MET_Y1230_D1228H] | 0.671 |
| RLFARYFQGDL [PDK3_Y337_YF] | 0.474 |
| DRPASYLDKVR [KRT17_Y98_L95P] | 0.405 |
| VRRRSYSAGNA [KANK1_Y324_K321R] | 0.664 |
| ALAAPYVLFPS [CEFIP_Y1332_G1337S_YF] | 0.504 |
| GCCSWYRGWAP [TIMP3_Y195_Y191C] | 3.84 |
| DEEYEYMNRRR [ERBB3_Y1199] | 0.466 |
| EVTQDYGLDPK [FH_Y110_N107T] | 0.625 |
| VVQGIYGYHHH [UFSP2_Y285_Y290H] | 13.8 |
| PVRIAYDRPRG [SUGP2_Y985] | 0.746 |
| LNNIIYRVERA [CUX2_Y1470] | 0.748 |

biological target: Fes (UniProt P07332); experiment: as above
Sequence (P07332 whole entry, looked up): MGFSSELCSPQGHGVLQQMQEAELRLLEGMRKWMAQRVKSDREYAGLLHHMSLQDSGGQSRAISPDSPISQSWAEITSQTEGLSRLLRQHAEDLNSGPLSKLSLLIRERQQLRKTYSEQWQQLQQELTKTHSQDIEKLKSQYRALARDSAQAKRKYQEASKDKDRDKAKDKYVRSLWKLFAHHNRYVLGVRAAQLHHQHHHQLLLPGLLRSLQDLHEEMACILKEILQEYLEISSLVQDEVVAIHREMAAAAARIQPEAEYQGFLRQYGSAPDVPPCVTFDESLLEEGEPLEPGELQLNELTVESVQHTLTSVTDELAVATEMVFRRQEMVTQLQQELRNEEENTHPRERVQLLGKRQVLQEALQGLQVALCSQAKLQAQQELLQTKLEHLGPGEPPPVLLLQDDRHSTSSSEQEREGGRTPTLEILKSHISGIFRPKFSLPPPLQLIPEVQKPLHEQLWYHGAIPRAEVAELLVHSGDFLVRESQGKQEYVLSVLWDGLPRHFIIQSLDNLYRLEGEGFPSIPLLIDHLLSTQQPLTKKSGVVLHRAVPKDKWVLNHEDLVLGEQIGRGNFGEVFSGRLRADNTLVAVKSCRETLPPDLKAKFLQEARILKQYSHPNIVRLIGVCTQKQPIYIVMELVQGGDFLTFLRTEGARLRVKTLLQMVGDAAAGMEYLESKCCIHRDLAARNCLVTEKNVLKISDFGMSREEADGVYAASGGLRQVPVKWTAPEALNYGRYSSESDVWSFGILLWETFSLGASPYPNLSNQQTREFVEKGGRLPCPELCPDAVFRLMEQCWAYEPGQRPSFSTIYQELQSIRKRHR

| Sequence | phosphorylation enrichment |
| --- | --- |
| GYKVRYATWSI [FGFR1_Y210] | 1.18 |
| SGPRRYTMAAL [TTR_Y125_I127M] | 0.611 |
| DERQPYAHMNG [IGF1R_Y1346] | 0.599 |
| VATSWYRSPEL [CDKL5_Y177_R175S] | 0.656 |
| DEWFLYKMRDI [CPS1_Y879_K875E] | 1.56 |
| AFHGEYIPTVF [RAC2_Y32_P29H] | 0.809 |
| REENGYNTYAS [FGF10_Y161_I156R] | 1.73 |
| WFISFYPQVIM [CTNS_Y143_S139F] | 1.53 |
| AFQGKYTPSGQ [ALDOA_Y343_C339Y_YF] | 0.446 |
| AKKVFYVNETR [SHH_Y253_I255N] | 0.737 |
| ESTPLYPMLFG [SCLY_Y280_F276S] | 0.969 |
| EFISEHCGEII [EZH2_Y641_Y641H] | 1.31 |
| KELAPYDENRF [RPS19_Y48_W52R] | 1.36 |
| LALTVYADCLA [ABCA4_Y2063_G2059A] | 1.48 |
| ETKENYGKTLK [CHL1_Y291] | 0.541 |
| RHPLDYLRQFP [NARS2_Y138_E137D_YF] | 0.74 |
| LASSEYPVRRR [GALK1_Y236] | 0.612 |

| Sequence | phosphorylation enrichment |
| --- | --- |
| QEIATYRPLLE [KRT14_Y415_R417P] | 1.24 |
| QGLRLYRPHLA [BTK_Y617] | 1.12 |
| HNLDYYKMTTN [FGFR3_Y648_K650M] | 1.04 |
| SVTCTYSAALN [TP53_Y126_P128A] | 1.72 |
| PEVRRCVLPLN [RPE65_Y368_Y368C] | 1.14 |
| LARHMYDKEYY [MET_Y1230_D1228H] | 0.933 |
| RLFARYFQGDL [PDK3_Y337_YF] | 0.882 |
| DRPASYLDKVR [KRT17_Y98_L95P] | 0.636 |
| VRRRSYSAGNA [KANK1_Y324_K321R] | 0.49 |
| ALAAPYVLFPS [CEFIP_Y1332_G1337S_YF] | 0.822 |
| GCCSWYRGWAP [TIMP3_Y195_Y191C] | 0.967 |
| DEEYEYMNRRR [ERBB3_Y1199] | 0.986 |
| EVTQDYGLDPK [FH_Y110_N107T] | 1.36 |
| VVQGIYGYHHH [UFSP2_Y285_Y290H] | 0.758 |
| PVRIAYDRPRG [SUGP2_Y985] | 0.737 |
| LNNIIYRVERA [CUX2_Y1470] | 1.34 |

biological target: Fyn (UniProt P06241); experiment: as above
Sequence (P06241 whole entry, looked up): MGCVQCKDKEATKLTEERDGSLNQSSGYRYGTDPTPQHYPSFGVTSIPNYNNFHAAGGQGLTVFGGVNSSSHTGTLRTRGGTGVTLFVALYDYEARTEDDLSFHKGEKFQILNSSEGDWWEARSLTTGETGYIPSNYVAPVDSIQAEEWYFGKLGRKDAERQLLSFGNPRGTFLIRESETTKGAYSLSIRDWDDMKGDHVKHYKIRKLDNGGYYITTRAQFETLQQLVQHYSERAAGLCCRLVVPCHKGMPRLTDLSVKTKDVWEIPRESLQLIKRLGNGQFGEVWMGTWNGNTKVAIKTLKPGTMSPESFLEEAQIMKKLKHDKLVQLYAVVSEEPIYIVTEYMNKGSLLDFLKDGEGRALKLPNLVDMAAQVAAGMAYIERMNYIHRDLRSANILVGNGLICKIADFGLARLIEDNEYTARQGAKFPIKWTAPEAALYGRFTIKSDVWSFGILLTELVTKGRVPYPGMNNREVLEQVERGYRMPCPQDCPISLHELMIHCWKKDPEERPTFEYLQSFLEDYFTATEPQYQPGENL

| Sequence | phosphorylation enrichment |
| --- | --- |
| GYKVRYATWSI [FGFR1_Y210] | 0.54 |
| SGPRRYTMAAL [TTR_Y125_I127M] | 0.416 |
| DERQPYAHMNG [IGF1R_Y1346] | 0.438 |
| VATSWYRSPEL [CDKL5_Y177_R175S] | 0.466 |
| DEWFLYKMRDI [CPS1_Y879_K875E] | 0.486 |
| AFHGEYIPTVF [RAC2_Y32_P29H] | 0.445 |
| REENGYNTYAS [FGF10_Y161_I156R] | 1.21 |
| WFISFYPQVIM [CTNS_Y143_S139F] | 0.413 |
| AFQGKYTPSGQ [ALDOA_Y343_C339Y_YF] | 0.273 |
| AKKVFYVNETR [SHH_Y253_I255N] | 0.307 |
| ESTPLYPMLFG [SCLY_Y280_F276S] | 0.6 |
| EFISEHCGEII [EZH2_Y641_Y641H] | 0.639 |
| KELAPYDENRF [RPS19_Y48_W52R] | 0.485 |
| LALTVYADCLA [ABCA4_Y2063_G2059A] | 0.699 |
| ETKENYGKTLK [CHL1_Y291] | 0.61 |
| RHPLDYLRQFP [NARS2_Y138_E137D_YF] | 0.511 |
| LASSEYPVRRR [GALK1_Y236] | 0.543 |

| Sequence | phosphorylation enrichment |
| --- | --- |
| QEIATYRPLLE [KRT14_Y415_R417P] | 0.961 |
| QGLRLYRPHLA [BTK_Y617] | 0.461 |
| HNLDYYKMTTN [FGFR3_Y648_K650M] | 0.454 |
| SVTCTYSAALN [TP53_Y126_P128A] | 0.657 |
| PEVRRCVLPLN [RPE65_Y368_Y368C] | 0.366 |
| LARHMYDKEYY [MET_Y1230_D1228H] | 0.638 |
| RLFARYFQGDL [PDK3_Y337_YF] | 0.499 |
| DRPASYLDKVR [KRT17_Y98_L95P] | 0.398 |
| VRRRSYSAGNA [KANK1_Y324_K321R] | 0.504 |
| ALAAPYVLFPS [CEFIP_Y1332_G1337S_YF] | 0.578 |
| GCCSWYRGWAP [TIMP3_Y195_Y191C] | 0.651 |
| DEEYEYMNRRR [ERBB3_Y1199] | 0.483 |
| EVTQDYGLDPK [FH_Y110_N107T] | 0.513 |
| VVQGIYGYHHH [UFSP2_Y285_Y290H] | 11.2 |
| PVRIAYDRPRG [SUGP2_Y985] | 0.486 |
| LNNIIYRVERA [CUX2_Y1470] | 0.936 |
